This is an account of results in paper PMC4379099 (PLoS Pathogens, 2015).

One assay has as its system MAP kinases. The format is cell-based, rice.
For assay [1], the target named is EFR::GFP (full-length Arabidopsis EFR with a carboxyl-terminal GFP fusion, transgenic rice) (Arabidopsis) (UniProt C0LGT6).
For assay [2], the target named is T1, EFR::XA21::GFP chimeric receptor (EFR ectodomain 1-649 fused to XA21 651-1025, carboxyl-terminal GFP, transgenic rice) (Arabidopsis | rice (Oryza longistaminata)) (UniProt C0LGT6).
T1 sequence: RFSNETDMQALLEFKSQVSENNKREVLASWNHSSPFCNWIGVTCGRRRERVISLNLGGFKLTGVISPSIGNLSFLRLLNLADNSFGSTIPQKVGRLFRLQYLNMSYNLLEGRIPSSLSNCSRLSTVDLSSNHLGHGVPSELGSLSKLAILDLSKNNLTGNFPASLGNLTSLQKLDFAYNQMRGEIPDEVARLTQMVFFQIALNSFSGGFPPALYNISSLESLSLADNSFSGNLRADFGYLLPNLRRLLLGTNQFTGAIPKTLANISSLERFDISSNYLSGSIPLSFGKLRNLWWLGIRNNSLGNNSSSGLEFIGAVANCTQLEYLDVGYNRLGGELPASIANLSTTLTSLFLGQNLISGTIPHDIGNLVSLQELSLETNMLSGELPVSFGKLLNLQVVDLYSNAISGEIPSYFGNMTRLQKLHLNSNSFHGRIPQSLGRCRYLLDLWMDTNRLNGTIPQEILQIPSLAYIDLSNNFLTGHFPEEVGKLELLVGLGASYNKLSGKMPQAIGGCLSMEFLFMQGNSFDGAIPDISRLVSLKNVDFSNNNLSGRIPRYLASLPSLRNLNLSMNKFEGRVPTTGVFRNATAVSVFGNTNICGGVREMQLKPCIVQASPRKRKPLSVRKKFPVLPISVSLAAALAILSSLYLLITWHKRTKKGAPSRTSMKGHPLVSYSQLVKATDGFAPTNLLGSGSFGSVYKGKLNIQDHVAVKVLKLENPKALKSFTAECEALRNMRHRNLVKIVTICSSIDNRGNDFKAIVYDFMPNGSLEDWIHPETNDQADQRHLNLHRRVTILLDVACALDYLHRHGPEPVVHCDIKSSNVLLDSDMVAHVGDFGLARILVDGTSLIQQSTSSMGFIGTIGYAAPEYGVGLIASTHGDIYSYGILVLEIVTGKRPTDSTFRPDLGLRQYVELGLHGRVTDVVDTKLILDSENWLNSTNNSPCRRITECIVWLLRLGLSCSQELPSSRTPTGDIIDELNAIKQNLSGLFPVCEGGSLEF

As for chitin, the “MAP kinase activation (phospho p44/42 bands, ~47 kDa and 40 kDa)” value with MAP kinases is reported as “increase of two distinct bands”.

As for “elf18_(E.coli) (from UniProt P0CE47 1-18) (peptide)”, the EC50 of ROS production in mature rice leaves (dose response curve) in assay [1] and in assay [2] was 0.3 nM each time.
